The record followed here is PMC5138414, “Structural Basis for Redox Regulation of Cytoplasmic and Chloroplastic Triosephosphate Isomerases from Arabidopsis thaliana” (Frontiers in Plant Science, 2016).

Substrate in the data set: O=CC(O)COP(=O)(O)O
Put plainly: purified protein. The format is biochemical, Arabidopsis thaliana. The settings on record: G3P to DHAP direction, 0-4.0 mM G3P (DL-G3P supplied), TEA pH 7.4, 10 mM EDTA, 0.01% BSA, 0.2 mM NADH, apparent constant.

B1: cTPI (Arabidopsis thaliana) (protein)
chain: MARKFFVGGNWKCNGTAEEVKKIVNTLNEAQVPSQDVVEVVVSPPYVFLPLVKSTLRSDFFVAAQNCWVKKGGAFTGEVSAEMLVNLDIPWVILGHSERRAILNESSEFVGDKVAYALAQGLKVIACVGETLEEREAGSTMDVVAAQTKAIADRVTNWSNVVIAYEPVWAIGTGKVASPAQAQEVHDELRKWLAKNVSADVAATTRIIYGGSVNGGNCKELGGQADVDGFLVGGASLKPEFIDIIKAAEVKKSA
notes: homodimer
For orientation: Km means the substrate concentration at which the rate is half of its maximum. In general, kcat refers to the maximal rate divided by the concentration of active sites. As usually defined, the kcat/Km is the turnover number divided by the Michaelis constant. Turning to B1, the Km was determined as 480 ± 50 µM, the kcat was 2560 ± 43.9 s⁻¹ and the kcat/Km is 5.34e+06 M⁻¹ s⁻¹.

B2: pdTPI (Arabidopsis thaliana) (protein)
chain: MAGSGKFFVGGNWKCNGTKDSIAKLISDLNSATLEADVDVVVSPPFVYIDQVKSSLTDRIDISGQNSWVGKGGAFTGEISVEQLKDLGCKWVILGHSERRHVIGEKDEFIGKKAAYALSEGLGVIACIGEKLEEREAGKTFDVCFAQLKAFADAVPSWDNIVVAYEPVWAIGTGKVASPQQAQEVHVAVRGWLKKNVSEEVASKTRIIYGGSVNGGNSAELAKEEDIDGFLVGGASLKGPEFATIVNSVTSKKVAA
notes: homodimer
Consider B2, for which the Km is 400 ± 20 µM, the kcat worked out at 2340 ± 41.6 s⁻¹ and the kcat/Km was 5.84e+06 M⁻¹ s⁻¹.
